Assay results as given in patent US20260049134A1 (UNIVERSITY OF FLORIDA RESEARCH FOUNDATION, published 2026).
Changes are numbered by the printed parent chain. Numbers in names are those of the source. Each block holds one binder with its values, some of them ahead of it.

Assays:
[1] = target: T1, PTPRG, endogenous in H929 multiple myeloma cells (human, UniProt P23470 20-1445); test: flow cytometry, H929 + CADM1 siRNA; None 449
T1 construct: Native protein on H929 cells (flow cytometry, siRNA knockdown) and in H929 lysates (IP/MS); also called phosphatase receptor type γ
T1 sequence (P23470 20-1445 limits assumed): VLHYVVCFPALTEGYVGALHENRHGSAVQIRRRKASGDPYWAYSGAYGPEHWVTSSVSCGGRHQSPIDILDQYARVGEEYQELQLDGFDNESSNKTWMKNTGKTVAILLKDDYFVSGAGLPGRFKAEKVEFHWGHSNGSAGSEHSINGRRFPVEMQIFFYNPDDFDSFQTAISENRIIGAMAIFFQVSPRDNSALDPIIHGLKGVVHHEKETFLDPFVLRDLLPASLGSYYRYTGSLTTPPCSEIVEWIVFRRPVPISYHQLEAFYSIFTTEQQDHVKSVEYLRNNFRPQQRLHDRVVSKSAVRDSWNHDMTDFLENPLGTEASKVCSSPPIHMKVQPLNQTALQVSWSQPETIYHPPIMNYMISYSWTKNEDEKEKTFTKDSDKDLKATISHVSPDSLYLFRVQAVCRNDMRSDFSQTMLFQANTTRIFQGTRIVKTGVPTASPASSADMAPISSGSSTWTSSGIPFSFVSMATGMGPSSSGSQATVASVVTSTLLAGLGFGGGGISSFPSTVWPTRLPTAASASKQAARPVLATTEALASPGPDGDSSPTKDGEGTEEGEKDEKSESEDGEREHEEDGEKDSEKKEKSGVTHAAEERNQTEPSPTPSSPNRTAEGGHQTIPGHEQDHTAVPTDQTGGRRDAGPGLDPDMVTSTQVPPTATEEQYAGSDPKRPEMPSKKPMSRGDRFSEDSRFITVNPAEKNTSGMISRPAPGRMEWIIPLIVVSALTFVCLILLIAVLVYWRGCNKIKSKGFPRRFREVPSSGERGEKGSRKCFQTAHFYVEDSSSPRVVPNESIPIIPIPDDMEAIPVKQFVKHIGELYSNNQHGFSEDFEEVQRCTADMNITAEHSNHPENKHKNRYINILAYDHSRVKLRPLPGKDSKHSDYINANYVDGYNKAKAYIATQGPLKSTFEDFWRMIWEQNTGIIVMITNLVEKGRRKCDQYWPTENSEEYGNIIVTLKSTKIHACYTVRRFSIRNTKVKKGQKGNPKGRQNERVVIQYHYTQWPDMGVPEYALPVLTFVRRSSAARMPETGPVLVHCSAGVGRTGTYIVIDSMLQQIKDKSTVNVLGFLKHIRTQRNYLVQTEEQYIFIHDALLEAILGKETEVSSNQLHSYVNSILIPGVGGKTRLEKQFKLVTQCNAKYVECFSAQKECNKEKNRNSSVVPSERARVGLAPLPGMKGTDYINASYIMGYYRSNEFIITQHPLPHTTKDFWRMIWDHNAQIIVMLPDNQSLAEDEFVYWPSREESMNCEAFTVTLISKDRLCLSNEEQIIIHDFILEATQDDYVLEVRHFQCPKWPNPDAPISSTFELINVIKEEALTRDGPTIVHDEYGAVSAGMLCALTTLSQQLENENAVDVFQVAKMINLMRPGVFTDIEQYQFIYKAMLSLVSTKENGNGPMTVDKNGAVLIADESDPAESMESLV

[2] = target: T1, PTPRG, endogenous in H929 multiple …; test: flow cytometry, H929 + ICAM1 siRNA; None 455
[3] = target: T2, CADM1, endogenous in H929 multiple myeloma cells (human, UniProt Q9BY67 45-442); test: flow cytometry, IgG1 on H929 cells
T2 construct: Native protein on H929 cells (flow cytometry, siRNA knockdown) and in H929 lysates (IP/MS); also called IGSF4A
T2 sequence: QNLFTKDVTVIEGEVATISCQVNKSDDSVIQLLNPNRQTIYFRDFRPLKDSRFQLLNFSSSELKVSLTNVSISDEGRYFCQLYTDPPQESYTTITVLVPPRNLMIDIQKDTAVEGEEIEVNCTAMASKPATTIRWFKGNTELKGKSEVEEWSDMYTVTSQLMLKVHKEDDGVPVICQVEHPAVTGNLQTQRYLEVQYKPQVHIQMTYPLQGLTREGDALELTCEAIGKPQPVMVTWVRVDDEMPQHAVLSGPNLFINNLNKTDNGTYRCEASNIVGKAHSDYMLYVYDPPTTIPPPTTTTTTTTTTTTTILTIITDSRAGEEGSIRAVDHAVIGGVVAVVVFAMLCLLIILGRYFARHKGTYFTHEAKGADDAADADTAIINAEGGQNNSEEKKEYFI
Protocol: (§1) Staining protocol. Cells were harvested (5×10⁴ cells per sample), washed once with phosphate-buffered saline (PBS) at RT, and a second time with ice-cold FACS buffer (PBS, 0.5% BSA, 2 mM EDTA, 0.1% NaN₃). Cells were stained in 50 μL of primary antibody for 30 min on ice, washed twice with 100 μL FACS buffer, stained with 50 μL of diluted secondary antibody, washed two more times in FACS, and then resuspended in 50 μL FACS buffer. Samples were acquired on an Accuri C6 Plus or a BD FACSCanto II flow cytometer (both from BD Biosciences). Data were analyzed using FlowJo version 10 software. Primary antibodies: Fab (10 μg/mL), IgG1 (0.1 to 50 μg/mL), or 25 μL polyclonal Fabs from periplasmic extracts. Polyclonal Fabs were produced by diluting bacterial stocks by a factor of 100 in autoinduction media and incubating overnight to induce expression as previously described. […] Viability stains: DAPI (Cell Signaling Technology) or SYTOX AADvanced Dead Cell Stain (Thermo Fisher Scientific). Labeling: The panel of chimeric rabbit/human IgG1s was labeled using the Alexa Fluor 647 Labeling Kit (Thermo Fisher Scientific, #A20173) to facilitate single-step staining. Competition: Unlabeled IgG1s were added at saturating concentrations of 60 μg/mL to block the target receptors, incubating on ice for 30 min, followed by the addition of an equal volume of the Alexa Fluor 647 labeled antibody at 2 μg/mL, and the mixture was incubated on ice for another 30 min.

CADM1 on RPMI-8226 cells = target: T3, CADM1 on RPMI-8226 cells (human, UniProt Q9BY67); test: flow cytometry, IgG1 on RPMI-8226 cells
T3 sequence (single chain, looked up): T2 sequence
Protocol: as §1

[4] = target: T2, CADM1, endogenous in H929 multiple …; test: flow cytometry, H929 + vehicle; None 513
[5] = target: T4, PTPRG-Fc (ECD of human PTPRG, aa 20-736, fused to human Fc gamma 1) (human, UniProt P23470 20-736); test: ELISA on coated PTPRG-Fc
T4 construct: Made in-house in Expi293 cells; Used in ELISA and SPR; also called recombinant PTPRG-Fc; PTRPG; not shown: human IgG1 Fc (Fc gamma 1) after the hinge
T4 sequence: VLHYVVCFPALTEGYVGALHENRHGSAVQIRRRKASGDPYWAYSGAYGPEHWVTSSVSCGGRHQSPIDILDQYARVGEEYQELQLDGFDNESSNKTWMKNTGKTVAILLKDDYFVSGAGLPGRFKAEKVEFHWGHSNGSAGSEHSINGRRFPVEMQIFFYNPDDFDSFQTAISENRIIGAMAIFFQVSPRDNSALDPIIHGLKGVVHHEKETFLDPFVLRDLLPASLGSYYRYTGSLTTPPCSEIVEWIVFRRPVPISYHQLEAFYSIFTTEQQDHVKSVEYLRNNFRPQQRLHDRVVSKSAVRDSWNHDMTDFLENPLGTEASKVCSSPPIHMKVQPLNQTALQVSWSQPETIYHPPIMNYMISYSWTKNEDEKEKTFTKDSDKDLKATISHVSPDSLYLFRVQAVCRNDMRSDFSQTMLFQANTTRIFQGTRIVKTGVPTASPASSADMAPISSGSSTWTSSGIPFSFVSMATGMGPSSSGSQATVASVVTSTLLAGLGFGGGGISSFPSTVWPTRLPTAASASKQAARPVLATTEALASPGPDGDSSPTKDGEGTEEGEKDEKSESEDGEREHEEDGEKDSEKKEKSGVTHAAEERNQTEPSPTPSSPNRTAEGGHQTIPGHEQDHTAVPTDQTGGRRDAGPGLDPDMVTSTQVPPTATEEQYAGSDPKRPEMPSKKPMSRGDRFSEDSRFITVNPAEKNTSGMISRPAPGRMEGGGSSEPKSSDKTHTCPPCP
Protocol: Recombinant purified ECDs (50-150 ng) of each putative target protein were coated, incubated with 150 ng of the indicated primary antibody, and binding was detected using a peroxidase-conjugated anti-human Fab secondary antibody. Heatmap represents averages of technical triplicates. (8B) Target validation via siRNA knockdown. H929 cells were transfected with siRNA pools targeting the putative antibody targets ICAM1, CADM1, and PTPRG. Cells were then subjected to cognate IgG binding analysis via flow cytometry. (NT, non-targeting siRNA).
ELISA ELISA was conducted as described previously. Briefly, 50-150 ng of antigen was coated overnight in half-area 96-well plates at 4° C., blocked with 3% BSA at 37° C. for 1 h, and 150 ng of chimeric rabbit/human IgG1 was added, incubating for 2 h at 37° C. […] After incubating at 37° C. for 15 min-1 h (depending on intensity of controls), data were acquired using a SpectraMax M5 plate reader (Molecular Devices).

B1: HW-42 chimeric rabbit-human IgG1 LA/LA/PG (antibody, V domains shown)
VH: QSVKESEGGLFKPADTLTLTCTVSGFSLSSNEISWVRQAPGEGLEYIGIIDTGGRAYYAVWARSRSTITRNTNLNTVTLKMTSLTAADTATYFCARGGVDTEWYAFSSWGPGTLVTVPS
VL: SFVLTQPASVQVNLGQTVSLTCTADTLSRRYASWYQQKPGQAPVLLIFRDTSRPSGVPDRFSGSSSGDTATLTISGAQAGDEADYYCATSDGSGSNYQYVFGGGTQLTVTG
notes: Fc-silenced (L234A/L235A/P329G) IgG1, lambda; Alexa Fluor 647-labeled in single-step flow cytometry; Cluster C-1
- mAb binding (MFI) [1]: 9210
- mAb binding (MFI) [2]: 12100

B2: HW-1 chimeric rabbit-human IgG1 LA/LA/PG (antibody, V domains shown)
VH: QSLEESGGGLFKPTDTLTLTCTASGFSLGSSYAISWVRQAPGKELEWIGTIDSGRAYYARWAKSRSTITRNTNENTVTLKMTSLTAADTATYFCARDLIPTYSQDIWGPGTLVTISS
VL: B1 VL with F48Y, D68N, S95N, N96S, G111S
notes: Fc-silenced (L234A/L235A/P329G) IgG1, lambda; Alexa Fluor 647-labeled in single-step flow cytometry; Prototype of cluster C-1
- mAb binding (MFI) [1]: 17500
- mAb binding (MFI) [2]: 24500

B3: HW-25 chimeric rabbit-human IgG1 LA/LA/PG (antibody, V domains shown)
VH: QSLEESGGRLVTPGTPLTLTCTVSGFSLSSYAMGWVRQAPGKGLEWIGIIDSRGSTYYATWAKGRFTISKTSTTVDLKITSPTTEDTATYFCAREDSYYYDSFNLWGPGTLVTVSS
VL: B1 VL with F48Y, D68N, N96S, Y99C
notes: as for B1
- mAb binding (MFI) [1]: 8720
- mAb binding (MFI) [2]: 11400

B5: HW-28 chimeric rabbit-human IgG1 LA/LA/PG (antibody, V domains shown)
VH: QKQLVESGGRLVTPGTPLTLTCTASGFSLSSNAMSWVRQAPGEGLQWIGTISSGGSTYYASWAKGRFTISKTSTTVTLKMTSLTTEDTATYFCARGADLHRLWGPGTLVTVSS
VL: B1 VL with A24G, D25K, T26P, R30S, Y31F, L46V, F48Y, D68N, N96S
notes: Fc-silenced (L234A/L235A/P329G) IgG1, lambda; Alexa Fluor 647-labeled in single-step flow cytometry; Cluster C-45
- binding result [5]: no binding (tested: 150 ng IgG1 per well)

B7: HW-17 chimeric rabbit-human IgG1 LA/LA/PG (antibody, V domains shown)
VH: QSLGESRGRLVTPDETLTLTCTVSGIDLSSNAMSWVRQAPGEGLEWIGTINTGGRAYYASWAKGRFTISRTSTTVDLKMTSLTTEDTATYFCARERYSDGRAYDIWGPGTLVTISS
VL: B1 VL with F48Y, R49T, T51S, S52N, V57I, D68N, S90D, N96I
notes: as for B1
- mAb binding (MFI) [1]: 21000
- mAb binding (MFI) [2]: 28000

B9: HW-56 chimeric rabbit-human IgG1 LA/LA/PG (antibody, V domains shown)
VH: QSVKESEGGLFKPTDTLTLTCTASGFTVSTNAVTWVRQAPGNGLEYIGTIGRSGSAYFASWAKRRSTLTRDINLNTVTLKMTSLTAADTATYFCVRGSPGYRTAISIWGPGTLVTISS
VL: AVMTQTPSSTSAAVEGTVTINCQASQSISNRLSWFQQKPGQPPKLLIYQASTLASGVPSRFKGSGSGTEFTLTISGVQREDAATYYCLGSYSSSDASFGGGTKLEIKR
notes: Fc-silenced (L234A/L235A/P329G) IgG1, kappa; Alexa Fluor 647-labeled in single-step flow cytometry; Cluster C-45
- binding result [5]: no binding (tested: 150 ng IgG1 per well)

B12: HW-81 chimeric rabbit-human IgG1 LA/LA/PG (antibody, V domains shown)
VH: QKQLVESGGGLVTPGGTLTLTCTVSGFSLSSNGVSWVRQAPGKGLEYIGLIRSIGSTYYATWAKGRFTISKTSTTVDLKITSPTTEDTATYFCARGGYRNGFKLWGPGTLVTVSS
VL: QPVLTQSPSVSAALGASAKLTCTLSSAHKTYYIEWYQQQHPGKAPRYLMQLQSDGSYTKGTGVPDRFSGSSSGADRYLIISSVQAEDEADYICGVIDSAVYVFGGGTQLTVTG
notes: as for B5
- binding result [5]: no binding (tested: 150 ng IgG1 per well)

More lines, main results first:

- antibody-bound positive cells (%) [3]: 98.6%
- antibody-bound positive cells (%) (CADM1 on RPMI-8226 cells): 98.8%
- mAb binding (MFI) [4]: 9510
B4: HW-97 chimeric rabbit-human IgG1 LA/LA/PG (antibody, V domains shown)
VH: QKQLVESGGRLVTPGTPLTLTCTVTGIDLSSHGMSWVRQAPGKGLEWIGVIYPSGSTWYASWARGRFTISKTSTTVDLKMTSLTTEDTATHFCARGDVGGADNNIWGPGTLVTVSS
VL: B1 VL with N13D, D25E, R30S, F48Y, D68N, N96S
notes: Fc-silenced (L234A/L235A/P329G) IgG1, lambda; Alexa Fluor 647-labeled in single-step flow cytometry; Prototype of cluster C-97

- antibody-bound positive cells (%) [3]: 95.3%
- antibody-bound positive cells (%) (CADM1 on RPMI-8226 cells): 97.6%
- mAb binding (MFI) [4]: 5940
B6: HW-101 chimeric rabbit-human IgG1 LA/LA/PG (antibody, V domains shown)
VH: QEQLVESGGRLVTPGTPLTLTCKASGFSLGKYDMSWVRQAPGKGLEWIGTIYAGSGSTWYASWAKGRFTISKTSTTVDLKMTSLTTEDTATYFCARDFLGVNSIWGPGTLVTISS
VL: B1 VL with R30S, G40D, F48H, S65N, D68N, Y97F, Q98H, Y99F
notes: Fc-silenced (L234A/L235A/P329G) IgG1, lambda; Alexa Fluor 647-labeled in single-step flow cytometry; Cluster C-97

- mAb binding (MFI) [1]: 13800
- mAb binding (MFI) [2]: 17900
B8: HW-70 chimeric rabbit-human IgG1 LA/LA/PG (antibody, V domains shown)
VH: QSLEESGGRLVTPGTPLTLTCTVSGFSLSSNAMSWVRQAPGKGLEWIGTIDGYGYTYYASWAKGRFTVSKTSTTVDLKITSPTTEDTATYFCAREIYLGSNFWGPGTLVTISS
VL: B1 VL with F48Y, D68N, S90A, N96S, Y99F
notes: as for B1

- mAb binding (MFI) [4]: 595
B10: TH9-0022 (antibody, human IgG1, kappa, L234A L235A, V domains shown)
VH: QSLEESGGRLVTPGTPLTLTCTVSGFSLSSYAMNWVRQAPGKGLEWIGIINSYGSTYYASWAKGRFTISKTSTTVDLKITSPTTEDTATYFCARVTYDSYGYGYAPYGMDLWGPGTLVTVSS
VL: LVMTQTPSSTSNAVGGTVTIKCQASQSIGNVLAWYQQKPGQPPKLLIYAASTLASGVPSRVGGSRSGTEYTLTISGVQREDAATYYCLGSDSDSDIAFGGGTELEILR
notes: also called TH9-022; negative control
- binding result [5]: no binding (tested: 150 ng IgG1 per well)

- antibody-bound positive cells (%) [3]: 2.7%
- antibody-bound positive cells (%) (CADM1 on RPMI-8226 cells): 3%
- binding result (CADM1 on RPMI-8226 cells): no binding
B11: TH9-0022 (antibody, human IgG1, kappa, L234A L235A, V domains shown)
VH: B10 VH
VL: B10 VL
notes: also called TH9-022; negative control IgG1
